Drawing on article PMC9601147, this text covers stoichiometry N for three substances.

Usually stoichiometry N stands for a count of units in the complex or per binding partner.

Assay in all cases: SEC
(SEC sorts molecules by how far they enter the pores of the column.)

Assay [1] deals with His6 tagged recombinant IN(R269A/K273A/D256N/D270N) (HIV-1 (NL4-3)).
The target in assay [2] is His6 tagged recombinant IN(D256R/R262A/R263A) (HIV-1 (NL4-3)).
The target in assay [3] is His6 tagged recombinant IN(R269A/K273A/D256R) (HIV-1 (NL4-3)).

With “His6 tagged recombinant IN(R269A/K273A/D256N/D270N) (enzyme)”, the stoichiometry N in assay [1] is 4.
On to “His6 tagged recombinant IN(D256R/R262A/R263A) (enzyme)”, for which the stoichiometry N in assay [2] was 4.
“His6 tagged recombinant IN(R269A/K273A/D256R) (enzyme)”: the stoichiometry N in assay [3] was found to be 4.
